For this assay, the target named is T1, FLAG-Eya3 (human), wild type, Q99504.
T1 chain: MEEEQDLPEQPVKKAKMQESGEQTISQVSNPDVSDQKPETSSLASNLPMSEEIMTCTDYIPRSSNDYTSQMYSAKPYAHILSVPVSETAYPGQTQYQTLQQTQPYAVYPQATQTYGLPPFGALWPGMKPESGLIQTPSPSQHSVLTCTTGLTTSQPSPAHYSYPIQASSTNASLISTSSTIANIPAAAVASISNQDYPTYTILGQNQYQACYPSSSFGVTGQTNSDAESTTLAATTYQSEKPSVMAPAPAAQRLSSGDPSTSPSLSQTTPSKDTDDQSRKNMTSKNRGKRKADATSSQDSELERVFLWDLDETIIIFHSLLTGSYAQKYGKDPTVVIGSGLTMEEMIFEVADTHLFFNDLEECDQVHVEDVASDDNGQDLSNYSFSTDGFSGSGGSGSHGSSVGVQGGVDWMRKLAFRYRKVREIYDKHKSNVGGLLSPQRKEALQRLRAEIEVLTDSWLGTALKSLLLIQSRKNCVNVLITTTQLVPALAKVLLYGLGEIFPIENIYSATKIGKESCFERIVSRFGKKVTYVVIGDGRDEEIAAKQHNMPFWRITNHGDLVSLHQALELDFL
The experiment in a line: FLAG co-IP followed by Western blot, band quantification. The note with it: chain shown with the change; cotransfected HEK cells; three biological replicates; parent: est. 1.0; read off a plot. A general note: A western blot detects proteins with antibodies after separation by electrophoresis.

B1: HA-tagged B55α (HA-B55α), wild type, P63151 F84-L90/GG (protein)
chain: MAGAGGGNDIQWCFSQVKGAVDDDVAEADIISTVEFNHSGELLATGDKGGRVVIFQQEQENKIQSHSRGEYNVYSTFQSHEPEGGEIEEKINKIRWLPQKNAAQFLLSTNDKTIKLWKISERDKRPEGYNLKEEDGRYRDPTTVTTLRVPVFRPMDLMVEASPRRIFANAHTYHINSISINSDYETYLSADDLRINLWHLEITDRSFNIVDIKPANMEELTEVITAAEFHPNSCNTFVYSSSKGTIRLCDMRASALCDRHSKLFEEPEDPSNRSFFSEIISSISDVKFSHSGRYMMTRDYLSVKIWDLNMENRPVETYQVHEYLRSKLCSLYENDCIFDKFECCWNGSDSVVMTGSYNNFFRMFDRNTKRDITLEASRENNKPRTVLKPRKVCASGKRKKDEISVDSLDFNKKILHTAWHPKENIIAVATTNNLYIFQDKVN
For B1, the ratio to parent was determined as 0.58.
